Bounds are passed on as bounds.

Assay [1] concerns the target HIV-1 gp41 of strain HIV IIIB (on infectious virus) (HIV-1 strain HIVIIIB), P04578. The assay is described as follows: cell-based or functional assay.
The target in assay [2] is HR2 peptide having the amino acid sequence of SEQ ID NO:33 (HIV-1). Description: surface plasmon resonance (Biacore protein chip assay). For orientation: In SPR one partner is held on a chip, and binding of the other changes the refractive index at the surface.
Assay [3] deals with synthetic peptide having the amino acid sequence of SEQ ID NO:36 (trimers formed therefrom) (HIV-1 (HIVIIIB)). Description: fluorescence polarization competition; 50 nM trimers of SEQ ID NO:36, 0.2 nM fluorescein-labeled HR2 peptide as competitor.

B1: synthetic peptide having the amino acid sequence of SEQ ID NO:38 (peptide)
peptide: QARQLLSGIVQQQNNLLRAIEATQHAVQALVWGVKQLQARVLALERYIKDQ
modifications: not checked
In assay [1], B1 displayed an Antiviral activity against HIV IIIB, IC50 (MAGI/cMAGI infectivity assay) of 0.18 µg/mL and an Antiviral activity against HIV IIIB, IC90 (MAGI/cMAGI infectivity assay) of 0.88 µg/mL.

B2: HR1 peptide of native sequence having the amino acid sequence of SEQ ID NO:27 (peptide)
peptide: QQQNNLLRAIEAQQHLLQLTVWGIKQLQARILAVERYLKDQ
modifications: not checked
For the molecule B2, in assay [1], the Antiviral activity vs. HIV IIIB, IC50 (MAGI/cMAGI infectivity assay) was determined as 4.69 µg/mL and the Antiviral activity vs. HIV IIIB, IC90 (MAGI/cMAGI infectivity assay) worked out at 23.2 µg/mL.

B3: synthetic peptide having the amino acid sequence of SEQ ID NO:43 (peptide)
peptide: QQQNNLLRAIEAQQHLLQLTVFGIKQLQARILAVERYLKDQ
modifications: not checked
In assay [1], B3 registered an Antiviral activity vs. HIV IIIB, IC50 (MAGI/cMAGI infectivity assay) of 1.34 µg/mL and an Antiviral activity vs. HIV IIIB, IC90 (MAGI/cMAGI infectivity assay) of 3.81 µg/mL.

B4: synthetic peptide having the amino acid sequence of SEQ ID NO:29 (peptide)
peptide: QQQNNLLRAIEAQQHLLQLTAWGIKQLQARILAVERYLKDQ
modifications: not checked
Regarding B4, in assay [1], the Antiviral activity vs. HIV IIIB, IC50 (MAGI/cMAGI infectivity assay) came to 2.81 µg/mL and the Antiviral activity vs. HIV IIIB, IC90 (MAGI/cMAGI infectivity assay) worked out at 5.86 µg/mL.

B5: synthetic peptide having the amino acid sequence of SEQ ID NO:35 (peptide)
peptide: QARQLVSGLVQQQNNILRALEATQHAVQALVWGVKQLQARVLALERYIK
modifications: not checked
For orientation: Kd means the constant that tells how readily two partners part at equilibrium. The low end stands for a tighter complex, the high end for a looser complex. B5 had a Kd in assay [2] of 21.8 nM. In assay [1], this molecule returned an Antiviral activity against HIV IIIB, IC50 (MAGI/cMAGI infectivity assay) of 0.14 µg/mL and an Antiviral activity against HIV IIIB, IC90 (MAGI/cMAGI infectivity assay) of 0.69 µg/mL.

B6: peptide having the amino acid sequence of SEQ ID NO:41 (peptide)
peptide: QARQLVSGLVQQQNNILRALEATQHLVQLLVWGVKQLQARVLALERYIK
modifications: not checked
As to B6, in assay [1], the Antiviral activity against HIV IIIB, IC50 (MAGI/cMAGI infectivity assay) came out at 3.89 µg/mL and the Antiviral activity against HIV IIIB, IC90 (MAGI/cMAGI infectivity assay) was found to be 14.5 µg/mL.

B7: synthetic peptide having the amino acid sequence of SEQ ID NO:37 (peptide)
peptide: QARQLVSGLVQQQNNILRALEATQHAVQALVWGVRQLQARVLALERYIK
modifications: not checked
In assay [1], B7 yielded an Antiviral activity against HIV IIIB, IC50 (MAGI/cMAGI infectivity assay) of less than 0.78 µg/mL.

B8: synthetic peptide having the amino acid sequence of SEQ ID NO:39 (peptide)
peptide: QARQLVSGLVQQQNNILRALEAQQHALQATVWGIKQLQARVLALERYIKDQ
modifications: not checked
In assay [1], B8 yielded an Antiviral activity against HIV IIIB, IC50 (MAGI/cMAGI infectivity assay) of 0.26 µg/mL and an Antiviral activity against HIV IIIB, IC90 (MAGI/cMAGI infectivity assay) of 1.2 µg/mL.

B9: HR2 peptide having the amino acid sequence of SEQ ID NO:33 (peptide)
peptide: WMEWDREINNYTSLIHSLIEESQNQQEKNEQELLEL
modifications: not checked
By IC50 is commonly meant the concentration that inhibits the measured activity by half. Turning to B9, in assay [3], the IC50 was determined as 68 nM.

Values taken from patent US20040091855A1, “Method for production of antivirals by use of HIV-derived HR1 peptides, and trimers formed therefrom” (priority 2002, published 2004).
